# Experimental data taken from CN112679613A.
# Changes are numbered by the printed parent chain.
# B1: 6F4单克隆抗体 (antibody, V domains shown)
# VH: EVKLVESGGGLVKPGGSLKLSCAASGFTFSQYASLWVRQIPEKRLEWVAAISGQGSLYFPDSVCTRFTISRDNARNICYLQMNSLRSDDTAMYYCARGAAADGGYFDTWGQGTTLTVSS
# VL: DIVLTQSPASLAVSLGQRATISCSASESVEFSGTSLTRWYQQKPGQPPKLLIYASQNVEGGVPARFSGSGSGTDFSLNIHPVEEDDIAMYFCCYSMKVPPRFGAGTKLELK
# B2: 4D6单克隆抗体 (antibody, V domains shown)
# VH: EVKLVESGGGLVKPGGSLKLSCAASGFTFSQYRMGWVRQIPEKRLEWVAEISSASSLYFPDSVKSRFTISRDNARNICYLQMNSLRSDDTAMYYCARAREADNVYFDAWGQGTTLTVSS
# VL: DIVLTQSPASLAVSLGQRATISCSQSESGTYYGTSLAMWYQQKPGQPPKLLIYAASNVESGVPARFSGSGSGTDFSLNIHPVEEDDIAMYFCTASMKAPLRFGAGTKLELK
# B3: 6G5单克隆抗体 (antibody, part only; not given: Light chain variable region, V domains shown, part only)
# VH: EVKLVESGGGLVKPGGSLKLSCAASGFTFSAYAMTWVRQIPEKRLEWVAAISPTGSLYFPGSVSGRFTISRDNARNICYLQMNSLRSDDTAMYYCARGVEADSQYFDKWGQGTTLTVSS
# B4: 2D3单克隆抗体 (antibody, V domains shown)
# VH: EVKLVESGGGLVKPGGSLKLSCAASGFTFSSAAMRWVRQIPEKRLEWVARIEEGGSAYFPDSVLVRFTISRDNARNICYLQMNSLRSDDTAMYYCARSRESPAGYFKLWGQGTTLTVSS
# VL: DIVLTQSPASLAVSLGQRATISCCASESVHPYGTSLAMWYQQKPGQPPKLLIYASSRVEPGVPARFSGSGSGTDFSLNIHPVEEDDIAMYFCSSSGQVPARFGAGTKLELK
# B5: 3E2单克隆抗体 (antibody, V domains shown)
# VH: EVKLVESGGGLVKPGGSLKLSCAASGFTFSNSAMRWVRQIPEKRLEWVAVIRAGGSLYFPDRVKSRFTISRDNARNICYLQMNSLRSDDTAMYYCARGREADGGYFDYWGQGTTLTVSS
# VL: DIVLTQSPASLAVSLGQRATISCAASERREYYGTSLASWYQQKPGQPPKLLIYARSNVEYGVPARFSGSGSGTDFSLNIHPVEEDDIAMYFCGSSMKRPLRFGAGTKLELK
# B6: 5D7单克隆抗体 (antibody, V domains shown)
# VH: EVKLVESGGGLVKPGGSLKLSCAASGFTFSDAAMRWVRQIPEKRLEWVASISSLISLYFPDSVESRFTISRDNARNICYLQMNSLRSDDTAMYYCARGAEASGGYFDQWGQGTTLTVSS
# VL: B5 VL with A24S, R28H, R29P, A37M, S38A, R55S, Y60T, G93Q, S94V, R101D
# B7: 5A3单克隆抗体 (antibody, V domains shown)
# VH: B5 VH with N31R, S32Y, R35S, V50A, R52S, A53S, R62S, S65G
# VL: DIVLTQSPASLAVSLGQRATISCSASESCYYYGTSLAQWYQQKPGQPPKLLIYKLSNVRGGVPARFSGSGSGTDFSLNIHPVEEDDIAMYFCRQPMKVPLKFGAGTKLELK
# B8: 4D3单克隆抗体 (antibody, V domains shown)
# VH: EVKLVESGGGLVKPGGSLKLSCAASGFTFSASAQSWVRQIPEKRLEWVALQSRSGSLYFPASVKQRFTISRDNARNICYLQMNSLRSDDTAMYYCARSREASGGYIDEWGQGTTLTVSS
# VL: DIVLTQSPASLAVSLGQRATISCSASESGGYYGTSLMNWYQQKPGQPPKLLIYSTSNEEKGVPARFSGSGSGTDFSLNIHPVEEDDIAMYFCGQSMKRPLRFGAGTKLELK
# Biological target: 肝癌Huh-7细胞 (Huh-7癌细胞抗原; Huh-7细胞裂解蛋白)
# Test: SPR, BIAcore T-200, 1:1 Langmuir model; binding to liver cancer Huh-7 cells
row,Kd,Binder
1,620 pM,B1
2,310 pM,B2
3,340 pM,B3
4,230 pM,B4
5,560 pM,B5
6,450 pM,B6
7,580 pM,B7
8,290 pM,B8

# Biological target: 肝癌Huh-7细胞 (Huh-7癌细胞抗原; Huh-7细胞裂解蛋白)
# Test: indirect ELISA; plate coated with 2 μg/mL Huh-7 cell antigen; purified ascites antibody in 2-fold dilutions
row,抗体效价,Binder
1,2.56e+06,B1
2,5.12e+06,B2
3,5.12e+06,B3
4,5.12e+06,B4
5,2.56e+06,B5
6,5.12e+06,B6
7,2.56e+06,B7
8,5.12e+06,B8
